The text below walks through data of publication doi:10.1101/2021.05.25.445547.

Values joined by “and” are separate entries in the source; they are usually repeats but may differ in a detail not shown here. Equal values may be shown once.

In test [1] the target is optimized bait-PAR-Grb2 with inserted flexible linker sequences, GFP-fused (UniProt P62993). Nature of the test: TIR-FRAP on micropatterned bait.
Test [2] shares this target. Nature of the test: subcellular micropatterning.
Test [3] deals with optimized bait-PAR-Grb2 with inserted flexible linker sequences, RFP-fused (UniProt P62993). The experiment in a line: subcellular micropatterning.
For test [4], the target named is T1, optimized bait-PAR-Grb2 with inserted flexible linker sequences, RFP-fused, P62993. The experiment in a line: subcellular micropatterning. Particulars: remark: other sources report otherwise.
In test [5] the target is T1, optimized bait-PAR-Grb2 with inserted …. Nature of the test: TIR-FRAP on micropatterned bait. Conditions: remark: other sources report otherwise.

For orientation: EC50 means the concentration at which the effect is half-maximal. A higher EC50 goes with weaker potency.

“SHC-transforming protein 1 (Shc1), RFP-fused (from UniProt P29353 1-583) (natural protein)”: in test [1], the halftime of dissociation (FRAP) was 10 s and the k slow (exchange rate, bi-exponential FRAP fit) was found to be 0.103 s⁻¹. Moreover, in test [2], the bait-normalized fluorescence contrast <c (prey/bait)>, after EGF came out at 0.45 and the bait-normalized fluorescence contrast <c (prey/bait)>, unstimulated cells is 0.14.

Regarding “cell-permeable cyclic peptide cyclo(YpVNFΦrpPRR)”, in test [3], the EC50 was 68 µM and 63 µM; the dissociation half-life of Gab1 from Grb2 at 100 μM peptide is 42 s; the dissociation half-life of SOS1 from Grb2 at 100 μM peptide stood at 36 s; the maximum prey dissociation (Gab1 and SOS1 from Grb2) at 100 μM peptide was in the range of 70 to 75%.

B1: son of sevenless protein 1 (SOS1), GFP-fused, Q07889 1-1333 (natural protein)
chain: MQAQQLPYEFFSEENAPKWRGLLVPALKKVQGQVHPTLESNDDALQYVEELILQLLNMLCQAQPRSASDVEERVQKSFPHPIDKWAIADAQSAIEKRKRRNPLSLPVEKIHPLLKEVLGYKIDHQVSVYIVAVLEYISADILKLVGNYVRNIRHYEITKQDIKVAMCADKVLMDMFHQDVEDINILSLTDEEPSTSGEQTYYDLVKAFMAEIRQYIRELNLIIKVFREPFVSNSKLFSANDVENIFSRIVDIHELSVKLLGHIEDTVEMTDEGSPHPLVGSCFEDLAEELAFDPYESYARDILRPGFHDRFLSQLSKPGAALYLQSIGEGFKEAVQYVLPRLLLAPVYHCLHYFELLKQLEEKSEDQEDKECLKQAITALLNVQSGMEKICSKSLAKRRLSESACRFYSQQMKGKQLAIKKMNEIQKNIDGWEGKDIGQCCNEFIMEGTLTRVGAKHERHIFLFDGLMICCKSNHGQPRLPGASNAEYRLKEKFFMRKVQINDKDDTNEYKHAFEIILKDENSVIFSAKSAEEKNNWMAALISLQYRSTLERMLDVTMLQEEKEEQMRLPSADVYRFAEPDSEENIIFEENMQPKAGIPIIKAGTVIKLIERLTYHMYADPNFVRTFLTTYRSFCKPQELLSLIIERFEIPEPEPTEADRIAIENGDQPLSAELKRFRKEYIQPVQLRVLNVCRHWVEHHFYDFERDAYLLQRMEEFIGTVRGKAMKKWVESITKIIQRKKIARDNGPGHNITFQSSPPTVEWHISRPGHIETFDLLTLHPIEIARQLTLLESDLYRAVQPSELVGSVWTKEDKEINSPNLLKMIRHTTNLTLWFEKCIVETENLEERVAVVSRIIEILQVFQELNNFNGVLEVVSAMNSSPVYRLDHTFEQIPSRQKKILEEAHELSEDHYKKYLAKLRSINPPCVPFFGIYLTNILKTEEGNPEVLKRHGKELINFSKRRKVAEITGEIQQYQNQPYCLRVESDIKRFFENLNPMGNSMEKEFTDYLFNKSLEIEPRNPKPLPRFPKKYSYPLKSPGVRPSNPRPGTMRHPTPLQQEPRKISYSRIPESETESTASAPNSPRTPLTPPPASGASSTTDVCSVFDSDHSSPFHSSNDTVFIQVTLPHGPRSASVSSISLTKGTDEVPVPPPVPPRRRPESAPAESSPSKIMSKHLDSPPAIPPRQPTSKAYSPRYSISDRTSISDPPESPPLLPPREPVRTPDVFSSSPLHLQPPPLGKKSDHGNAFFPNSPSPFTPPPPQTPSPHGTRRHLPSPPLTQEVDLHSIAGPPVPPRQSTSQHIPKLPPKTYKREHTHPSMHRDGPPLLENAHSS
In test [4], B1 showed a bait-normalized fluorescence contrast <c (prey/bait)>, after EGF of 0.56; a bait-normalized fluorescence contrast <c (prey/bait)>, basal conditions of 0.55; a reduction of copatterning with 10 μM actinomycin D of 25%. In test [5], this molecule showed a halftime of dissociation (FRAP) of 13 s and a k slow (exchange rate, bi-exponential FRAP fit) of 0.074 s⁻¹.
